From the supplement of paper PMC10567573

B1: TSPAN10 (parent)
chain: EGCGPPLRRWLRANLAASGGYAIA
B2: ATL3 (parent)
chain: HFKKTKKMGGKDFSFRYQQELEEE

Variants of: B1
Test: protein stability index of a GFP-peptide fusion (GPS, HEK-293T) (PSI 1-6); higher = more stable
Details: c terminus: a fixed tail appended
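Note: lentivirally expressed fusions sorted by FACS into six bins by GFP to DsRed ratio, PSI derived from sequencing read proportions per bin multiplied by bin number.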

Protein stability index, by site and new letter:
R12: F 2.29
G4: L 1.58
P5: D 2.38 | T 2.05
A16: D 2.12 | N 2.5 | L 1.53
L11: M 2.51 | Y 1.9
A22: D 2.46 | R 1.68 | H 2.23
N14: M 2.08 | W 1.83
G20: D 2.25 | I 1.49
P6: Y 1.62
R9: C 1.29
E1: N 1.96
A13: H 2.26 | Y 1.66
L15: K 2.53
C3: G 2.11 | E 2.82
A17: Y 1.97
S18: F 2.57

Variants of: B2
Test: as above
Details: c terminus: a fixed tail appended

Protein stability index, by site and new letter:
E24: D 2.28 | H 3.13 | A 2.68 | N 3.49 | V 3.28 | K 3.43 | C 2.74 | Q 2.08 | W 1.9 | R 3.35 | M 1.81 | I 2.16 | S 2.85 | Y 1.54
M8: Q 2.21 | E 2.72 | C 2.24 | F 1.68 | D 2.14 | L 1.48 | T 2.63 | K 3.19 | A 2.39 | G 3.01 | H 2.29 | S 2.77 | N 2.4 | R 2.81
G9: Y 1.74 | H 1.84 | A 1.41 | K 2.7 | C 2.61 | I 2.48 | S 1.75 | V 1.82 | E 1.77 | L 2.26 | N 1.99 | R 1.77 | T 2.11
L21: Q 2.4 | E 3.19 | Y 1.4 | M 1.53 | N 4.27 | R 2.46 | P 4.57 | I 2.98 | D 4.71 | C 2.1 | H 2.44 | K 3.3
K6: Y 2.38 | W 1.51 | Q 2.39 | T 1.96 | E 2.1 | P 1.2 | F 3.58 | C 2.15 | I 1.37 | A 2.4 | H 1.52
Q18: A 2 | R 1.44 | T 2.27 | E 2.73 | G 1.87 | Y 1.81 | N 2.54 | I 1.85 | P 4.2 | H 2.34
E20: N 3.16 | C 4.73 | Q 2.91 | D 2.25 | R 3.96 | M 3.43 | P 3.22 | Y 3.14 | S 3.94 | F 3.58 | V 2.51 | W 2 | G 3.11 | I 3.47
F13: N 5.05 | I 4.91 | T 4.97 | Y 2.75 | V 4.96 | R 3.94 | H 2.79 | G 5.01 | D 5.57 | A 5.27 | K 4.09 | C 4.74 | P 4.29 | Q 5.21 | M 3.76
K4: Y 1.23 | V 1.62 | D 3.67 | M 2.26 | H 2.1 | S 3.01 | W 1.61 | L 2.6 | G 2.67 | N 2.26 | T 2.1 | E 1.6 | I 1.66
Q19: I 1.46 | P 3.56 | K 1.89 | G 3.99 | E 2.45 | V 2.92 | W 2.03 | S 2.5 | R 2.52 | D 3.36 | C 1.57 | N 4.01
T5: A 1.5 | R 1.31 | V 2.75 | P 1.78 | S 2.26 | L 2.53 | Q 1.8 | Y 1.75 | C 2.37 | H 1.83 | N 2.58 | I 2.17 | F 2.44
F15: E 1.39 | Y 1.54 | A 2.54 | M 2.39 | D 1.76 | T 2.24 | L 2.46 | R 1.83 | N 1.66 | G 2.22 | K 3.04 | H 2.71 | P 4.31
K11: I 2.27 | P 2.06 | F 1.24 | E 1.2 | N 1.78 | Q 2.24 | H 2.11 | S 2.4 | Y 1.26 | T 2.22 | A 2.69 | C 2.17
K3: E 1.43 | F 2.41 | H 1.73 | N 2.18 | Y 2.75 | S 1.79 | A 2.06 | Q 3.21 | W 1.02 | P 1.9 | G 1.86 | V 2.4 | R 2.42 | L 1.98 | I 1.89 | D 2.34 | M 2.71
F2: S 1.91 | G 1.4 | N 2.28 | D 2.65 | Y 2.1 | H 1.62 | P 1.26 | V 2.62 | T 1.87 | R 2.64 | C 1.8 | L 1.39 | E 1.09
G10: R 2.03 | H 2.19 | W 1.7 | C 1.56 | S 3.53 | V 2.04 | F 1.82 | Q 1.86 | A 1.75 | D 1.8 | T 1.61 | M 2.71 | E 5.39 | I 1.68
S14: M 2.91 | Y 3.61 | K 3.31 | E 1.53 | G 2.54 | C 1.08 | F 3.85 | L 2.35 | V 2.17 | W 4.01
R16: M 2.84 | K 2.51 | Q 3.08 | A 2.98 | W 2.11 | E 5.18 | N 3.69 | L 2.45 | D 5.02 | V 2.54 | H 3.09 | S 4.39 | F 3.07 | C 3.28 | T 4.47 | G 4.22 | P 4.96 | Y 2.18
Y17: R 5.25 | S 3.14 | P 4.68 | L 2.1 | Q 4.78 | V 2.03 | W 2.61 | H 3.72 | N 5.28 | E 5.02 | K 4.89 | G 4.68 | D 5.61
H1: N 2.03 | I 1.36 | F 1.88 | P 3.17 | W 2.22 | L 1.65 | M 2.32 | V 2.26 | S 1.73 | K 3.03 | A 2.35 | T 3.89
K7: S 2.04 | R 1.65 | N 2.11 | T 1.9 | A 2.02 | G 1.8 | L 2.1 | V 1.84 | Q 2.54 | H 2.32 | P 2.56 | I 2.9
D12: E 2.34 | Y 2.32 | P 1.99 | L 2.67 | A 1.88 | N 2.1 | V 2.7 | M 1.46
E23: Y 1.71 | F 2.27 | A 2.2 | V 2.27 | S 2.2 | H 2.02 | N 2.67 | L 2.22 | G 1.88 | C 3.01 | I 1.97 | P 4.12
E22: M 1.8 | C 3.15 | H 2.83 | Q 1.59 | P 3.31 | S 1.8 | W 1.3 | G 2.5 | Y 2.15 | T 2.03 | V 2.41 | I 1.79 | K 3.18
